Assay results taken from patent publication US20120114557A1 (published 2012).
Values belong to the binder of their own block, whether it stands above or below them. Bridge positions count the residues as written; N and C are the ends. Primed or numbered codes have the meaning given here. Side chains are listed from the residue outwards. Ends that are not written are not given here. Gd^T″ = GdDTPA-thiourea; Gd^ = not defined here

Experiments:
human collagen type I [1] = molecular target: T1, human collagen type I (human, UniProt P02452 162-1218; P08123 80-1119); experiment: dried collagen assay, 5 uM peptide
T1 construct: biotinylated collagen I in the phage ELISA; also called dried human collagen; Collagen I
T1 sequence (P02452 162-1218 limits assumed, chain 1 of 2): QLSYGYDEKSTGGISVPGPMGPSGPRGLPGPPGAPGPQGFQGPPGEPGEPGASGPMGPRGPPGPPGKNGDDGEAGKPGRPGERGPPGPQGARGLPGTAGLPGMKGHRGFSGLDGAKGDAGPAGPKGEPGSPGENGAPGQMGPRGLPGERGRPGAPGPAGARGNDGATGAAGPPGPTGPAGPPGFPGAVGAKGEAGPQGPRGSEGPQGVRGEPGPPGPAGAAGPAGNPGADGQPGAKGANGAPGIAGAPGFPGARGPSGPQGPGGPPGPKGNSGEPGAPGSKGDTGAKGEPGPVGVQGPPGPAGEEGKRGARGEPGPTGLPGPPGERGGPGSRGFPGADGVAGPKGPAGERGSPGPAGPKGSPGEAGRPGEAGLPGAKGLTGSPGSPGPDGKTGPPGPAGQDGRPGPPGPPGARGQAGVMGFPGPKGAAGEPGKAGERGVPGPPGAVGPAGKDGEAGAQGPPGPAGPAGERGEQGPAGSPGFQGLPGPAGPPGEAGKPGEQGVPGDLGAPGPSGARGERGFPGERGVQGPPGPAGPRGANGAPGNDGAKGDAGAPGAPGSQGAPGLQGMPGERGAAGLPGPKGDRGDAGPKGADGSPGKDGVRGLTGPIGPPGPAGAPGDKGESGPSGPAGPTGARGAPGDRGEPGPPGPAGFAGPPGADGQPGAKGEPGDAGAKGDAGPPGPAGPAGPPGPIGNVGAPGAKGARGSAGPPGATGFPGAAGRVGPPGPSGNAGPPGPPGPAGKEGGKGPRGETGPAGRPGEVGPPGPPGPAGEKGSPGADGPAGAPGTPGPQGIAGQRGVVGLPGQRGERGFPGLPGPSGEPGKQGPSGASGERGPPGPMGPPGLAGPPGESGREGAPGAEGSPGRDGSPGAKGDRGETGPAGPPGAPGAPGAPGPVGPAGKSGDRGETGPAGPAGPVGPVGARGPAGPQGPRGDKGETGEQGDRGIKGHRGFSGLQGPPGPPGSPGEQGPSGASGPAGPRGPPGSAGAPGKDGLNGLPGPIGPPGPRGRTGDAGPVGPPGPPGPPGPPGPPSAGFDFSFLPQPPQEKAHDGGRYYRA
T1 sequence (P08123 80-1119 limits assumed, chain 2 of 2): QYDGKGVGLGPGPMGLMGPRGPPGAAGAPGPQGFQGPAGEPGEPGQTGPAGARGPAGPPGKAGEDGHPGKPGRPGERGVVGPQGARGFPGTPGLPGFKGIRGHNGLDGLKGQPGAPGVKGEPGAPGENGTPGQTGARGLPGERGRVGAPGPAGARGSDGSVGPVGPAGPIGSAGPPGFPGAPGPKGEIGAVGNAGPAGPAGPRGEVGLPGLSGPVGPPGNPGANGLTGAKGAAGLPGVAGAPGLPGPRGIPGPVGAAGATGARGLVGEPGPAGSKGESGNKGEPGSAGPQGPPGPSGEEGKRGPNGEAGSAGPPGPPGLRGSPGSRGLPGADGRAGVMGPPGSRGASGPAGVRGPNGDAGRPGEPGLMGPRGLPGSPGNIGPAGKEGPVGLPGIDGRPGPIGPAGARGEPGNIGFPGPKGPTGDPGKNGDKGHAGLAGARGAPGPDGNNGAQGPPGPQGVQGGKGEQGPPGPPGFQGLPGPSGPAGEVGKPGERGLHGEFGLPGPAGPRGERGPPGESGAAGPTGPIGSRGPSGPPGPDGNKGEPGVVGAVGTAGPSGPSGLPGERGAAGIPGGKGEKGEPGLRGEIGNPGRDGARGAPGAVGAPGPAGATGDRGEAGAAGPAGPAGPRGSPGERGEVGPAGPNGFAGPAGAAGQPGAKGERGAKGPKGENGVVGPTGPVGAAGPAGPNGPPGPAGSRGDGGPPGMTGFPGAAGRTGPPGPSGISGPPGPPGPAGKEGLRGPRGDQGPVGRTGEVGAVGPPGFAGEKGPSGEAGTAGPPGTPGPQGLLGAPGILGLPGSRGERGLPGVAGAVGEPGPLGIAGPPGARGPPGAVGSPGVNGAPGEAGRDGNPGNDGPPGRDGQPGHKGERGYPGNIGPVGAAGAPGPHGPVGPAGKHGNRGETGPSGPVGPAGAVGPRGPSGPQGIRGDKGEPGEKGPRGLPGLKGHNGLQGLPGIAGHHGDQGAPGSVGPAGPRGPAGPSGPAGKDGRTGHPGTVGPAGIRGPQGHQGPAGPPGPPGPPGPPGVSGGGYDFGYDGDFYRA
Experimental: An additional 90 μL is reserved in a HPLC glass vial as a measure of the total concentration.

[2] = molecular target: T2, human collagen (acid soluble, extracted from placenta; type I) (human, UniProt P02452 162-1218; P08123 80-1119); experiment: dried collagen assay, 5 uM each, 37 C, pH 7.4
T2 construct: mature; Tissue-extracted collagen; also called human collagen type I
T2 sequence (P02452 162-1218, chain 1 of 2): as the sequence (P02452 162-1218 limits assumed, chain 1 of 2) above
T2 sequence (P08123 80-1119, chain 2 of 2): as the sequence (P08123 80-1119 limits assumed, chain 2 of 2) above
Experimental: (§1) For the final assay, a 1:10 volume of 10×PBS (100 mM NaH₂PO₄, 1.5 M NaCl pH 7.4) is added to the collagen solution (final 1×PBS) and incubated at 37° C. for 2 hours.

[3] = molecular target: T3, rat collagen (acid soluble, type I, rat tail) (rat, UniProt P02454 152-1207; P02466 86-1125); experiment: dried collagen assay, 5 uM each, 37 C, pH 7.4
T3 construct: mature; Tissue-extracted collagen; also called rat collagen type I
T3 sequence (P02454 152-1207, chain 1 of 2): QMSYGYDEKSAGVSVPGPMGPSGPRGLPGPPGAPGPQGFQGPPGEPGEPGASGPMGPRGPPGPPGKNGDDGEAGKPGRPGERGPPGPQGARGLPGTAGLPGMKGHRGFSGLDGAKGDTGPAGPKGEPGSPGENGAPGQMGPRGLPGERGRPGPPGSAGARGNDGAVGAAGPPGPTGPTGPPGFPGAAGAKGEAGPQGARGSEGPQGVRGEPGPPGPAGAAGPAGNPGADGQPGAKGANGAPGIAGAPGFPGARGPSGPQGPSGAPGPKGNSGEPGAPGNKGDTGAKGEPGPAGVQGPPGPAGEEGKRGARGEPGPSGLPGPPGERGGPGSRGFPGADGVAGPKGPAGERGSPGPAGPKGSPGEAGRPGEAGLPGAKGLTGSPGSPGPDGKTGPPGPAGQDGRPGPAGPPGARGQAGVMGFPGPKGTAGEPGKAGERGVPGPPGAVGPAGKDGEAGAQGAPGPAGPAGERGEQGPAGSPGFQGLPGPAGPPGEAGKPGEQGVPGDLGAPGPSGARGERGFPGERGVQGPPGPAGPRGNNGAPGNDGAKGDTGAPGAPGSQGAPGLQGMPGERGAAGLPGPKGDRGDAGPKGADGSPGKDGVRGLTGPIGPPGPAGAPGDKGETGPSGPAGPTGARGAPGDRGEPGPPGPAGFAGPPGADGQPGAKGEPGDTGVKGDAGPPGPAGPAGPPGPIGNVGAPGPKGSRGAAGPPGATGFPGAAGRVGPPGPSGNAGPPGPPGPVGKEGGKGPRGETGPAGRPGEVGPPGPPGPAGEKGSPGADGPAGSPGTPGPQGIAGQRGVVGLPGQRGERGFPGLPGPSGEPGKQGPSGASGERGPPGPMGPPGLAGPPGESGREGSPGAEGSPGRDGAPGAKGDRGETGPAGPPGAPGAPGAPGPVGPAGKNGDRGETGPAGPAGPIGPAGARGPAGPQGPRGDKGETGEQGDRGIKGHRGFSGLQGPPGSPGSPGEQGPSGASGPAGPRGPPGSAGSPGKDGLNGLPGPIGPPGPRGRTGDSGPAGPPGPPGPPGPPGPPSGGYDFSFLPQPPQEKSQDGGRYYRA
T3 sequence (P02466 86-1125, chain 2 of 2): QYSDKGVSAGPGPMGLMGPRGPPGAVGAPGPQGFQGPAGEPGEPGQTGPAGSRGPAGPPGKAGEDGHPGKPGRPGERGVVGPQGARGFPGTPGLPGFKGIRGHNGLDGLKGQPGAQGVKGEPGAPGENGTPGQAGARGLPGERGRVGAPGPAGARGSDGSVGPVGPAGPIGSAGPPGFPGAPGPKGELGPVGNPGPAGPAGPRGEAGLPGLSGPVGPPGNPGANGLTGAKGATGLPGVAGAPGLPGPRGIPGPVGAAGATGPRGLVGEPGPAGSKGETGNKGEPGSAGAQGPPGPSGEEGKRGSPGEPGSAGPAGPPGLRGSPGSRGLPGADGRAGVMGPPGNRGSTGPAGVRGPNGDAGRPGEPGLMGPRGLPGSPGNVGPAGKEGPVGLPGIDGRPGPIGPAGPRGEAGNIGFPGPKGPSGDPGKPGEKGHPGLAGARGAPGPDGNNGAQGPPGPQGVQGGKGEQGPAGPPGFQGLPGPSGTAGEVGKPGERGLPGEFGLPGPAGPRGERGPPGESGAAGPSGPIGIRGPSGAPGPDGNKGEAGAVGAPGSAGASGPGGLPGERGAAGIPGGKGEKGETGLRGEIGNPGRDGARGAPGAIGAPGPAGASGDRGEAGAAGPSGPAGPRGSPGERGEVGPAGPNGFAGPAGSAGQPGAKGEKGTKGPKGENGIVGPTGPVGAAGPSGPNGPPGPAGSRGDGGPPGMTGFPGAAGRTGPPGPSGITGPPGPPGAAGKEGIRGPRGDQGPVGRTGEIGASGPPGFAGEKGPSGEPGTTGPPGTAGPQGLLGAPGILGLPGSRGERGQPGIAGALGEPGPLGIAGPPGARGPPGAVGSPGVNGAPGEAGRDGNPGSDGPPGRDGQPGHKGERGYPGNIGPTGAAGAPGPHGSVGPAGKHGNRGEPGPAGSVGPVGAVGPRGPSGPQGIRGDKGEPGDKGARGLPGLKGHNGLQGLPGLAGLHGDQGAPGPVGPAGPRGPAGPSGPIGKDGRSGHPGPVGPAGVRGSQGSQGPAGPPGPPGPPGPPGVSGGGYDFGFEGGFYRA
Experimental: as §1

human collagen type I [4] = molecular target: T1, human collagen type I; experiment: dried collagen assay, 5 uM peptide; remark: listed apart in the source
rat collagen type I = molecular target: T4, rat collagen type I (rat, UniProt P02454 152-1207; P02466 86-1125); experiment: dried collagen assay, 5 uM peptide
T4 construct: rat tail, Upstate 08-115; gelled and dried in wells; also called dried rat collagen; rat collagen (acid soluble, type I, rat tail)
T4 sequence (P02454 152-1207, chain 1 of 2): as the sequence (P02454 152-1207, chain 1 of 2) above
T4 sequence (P02466 86-1125, chain 2 of 2): as the sequence (P02466 86-1125, chain 2 of 2) above

Dried Human Collagen Binding (human collagen type I [1]): 6%
Binder: RWSCVLDADGWVCSDN (disulfide 4-13 (inferred), also called TN-10 peptide) [SEQ ID NO: 66]

Dried Human Collagen Binding (human collagen type I [1]): 9%
Binder: GWQCFGASDWHCTWV (disulfide 4-12, also called TN-9 peptide) [SEQ ID NO: 8]

Dried Human Collagen Binding (human collagen type I [1]): 5%
Binder: WQVCADSPGVITYCYTY (disulfide 4-14 (inferred), also called TN-11 peptide) [SEQ ID NO: 98]

Dried Human Collagen Binding (human collagen type I [1]): 12%
Binder: GWQCQGTDSLDWKCLYM (disulfide 4-14 (inferred), also called TN-11 peptide) [SEQ ID NO: 77]

Dried Human Collagen Binding (human collagen type I [1]): 5%
Binder: SWHCFLENHHWMCSDH (disulfide 4-13 (inferred), also called TN-10 peptide) [SEQ ID NO: 68]

Dried Human Collagen Binding (human collagen type I [1]): 10%
Binder: ERNCVLNDFRWTCGGD (disulfide 4-13 (inferred), also called TN-10 peptide) [SEQ ID NO: 75]

Dried Human Collagen Binding (human collagen type I [1]): 5%
Binder: GWSCHSMDMQWHCDFS (disulfide 4-13 (inferred), also called TN-10 peptide) [SEQ ID NO: 67]

Human binding [2]: 22%
Rat binding [3]: 10%
Binder: {Gd^T″}-GQWTCSGDEYTWHCNYE-{GTE} (disulfide 5-14 (inferred), also called Comp ID NO; 837) [Compound ID 837]

Human binding [2]: 64%
B1: Compound ID 864 (peptide)
peptide: {Gd^}-TGQWHCTTRFPHHYCLYG
modifications: not fully specified (some residues, bridges); printed as Gd^T.G.Q.W.H.C.T.T.R.F.P.H.H.y.C.L.Y.G; reading uncertain; also: series closure stated: disulfide
notes: also called Comp ID NO; 864

Rat binding [3]: 8%
Binder: {Gd^T″}-GK([Gly-Gd^T″])WHCTTLFPHHVCLYG (disulfide 5-14 (inferred), also called Comp ID NO; 966) [Compound ID 966]

Dried Human Collagen Binding (human collagen type I [1]): 6%
Binder: SWYCNNGSYGQWHCEHR (disulfide 4-14 (inferred), also called TN-11 peptide) [SEQ ID NO: 80]

% Collagen Binding, Dried Human (human collagen type I [4]): 5%
% Collagen Binding, Dried Rat (rat collagen type I): 12%
Binder: YHACYQAGCYIY (disulfide 4-9 (inferred), also called TN-6 peptide) [SEQ ID NO: 108]
